Test results published in patent publication US10251952B2, “Humanized anti-tau(pS422) antibody brain shuttles and use thereof” (Hoffmann-La Roche Inc., priority 2014, dated 2019).

Molecular target: human tau(pS422) (Homo sapiens, UniProt P10636, S739X)
Experiment: BIAcore kinetic screening and kinetic rates of humanized VH/VL combinations
Format: binding
Conditions: 25 °C
Method: In the following Table characteristics of the different humanized variants of the rabbit light chain variable domain in combination with the humanized heavy chain variable domains VH14 and VH20, respectively, are shown. Binding partner was human tau(pS422).
Kinetic screening was performed according to Schraeml et al. (Schraeml, M. and M. Biehl, Methods Mol. Biol. 901 (2012) 171-181) on a BIAcore 4000 instrument, mounted with a BIAcore CM5 sensor. The BIAcore 4000 instrument was under the control of the software version V1.1. A BIAcore CM5 series S chip was mounted into the instrument and was hydrodynamically addressed and preconditioned according to the manufacturer's instructions. The instrument buffer was HBS-EP buffer (10 mM HEPES (pH 7.4), 150 mM NaCl, 1 mM EDTA, 0.05% (w/v) P20). An antibody capture system was prepared on the sensor surface. A polyclonal goat anti-human antibody with human IgG-Fc specificity (Jackson Lab.) was immobilized at 30 μg/ml in 10 mM sodium acetate buffer (pH 5) to spots 1, 2, 4 and 5 in the instrument's flow cells 1, 2, 3 and 4 at 10,000 RU using NHS/EDC chemistry. In each flow cell the antibodies were captured on spot 1 and spot 5. Spot 2 and spot 4 were used as reference spots. The sensor was deactivated with a 1 M ethanolamine solution. Humanized antibody derivatives were applied at concentrations between 44 nM and 70 nM in instrument buffer supplemented with 1 mg/ml CMD (carboxymethyldextrane). The antibodies were injected at a flow rate of 30 μl/min for 2 minutes. The capture level (CL) of the surface-presented antibodies was measured in rel. response units (RU). The analytes in solution, phosphorylated human tau protein, non-phosphorylated human tau protein and the phosphorylated human tau mutant protein T422S were injected at 300 nM for 3 minutes at a flow rate of 30 μl/minute. The dissociation was monitored for 5 minutes. The capture system was regenerated by a 1 minute injection of 10 mM glycine buffer, pH 1.7 at 30 μL/minute over all flow cells. Two report points, the recorded signal shortly before the end of the analyte injection, denoted as binding late (BL) and the recorded signal shortly before the end of the dissociation time, stability late (SL), were used to characterize the kinetic screening performance. Furthermore, the dissociation rate constant kd (1/s) was calculated according to a Langmuir model and the antibody/antigen complex half-life was calculated in minutes according to the formula ln(2)/(60*kd). The molar ratio (MR) was calculated according to the formula MR=(Binding Late (RU))/(Capture level (RU))*(MW(antibody)/(MW(antigen)). In case the sensor was configured with a suitable amount of antibody ligand capture level, each antibody should be able to functionally bind at least to one analyte in solution, which is represented by a molar ratio of MR=1.0. Then, the molar ratio is also an indicator for the valence mode of analyte binding. The maximum valence can be MR=2 for an antibody binding two analytes, one with each Fab valence.
In another embodiment, kinetic rates were determined at 25° C. and 37° C. using the same experimental setup, but using multiple concentration series of each analyte in solution at 0 nM (buffer), 1.2 nM, 3.7 nM, 11.1 nM, 33.3 nM, 100 nM and 300 nM. From the concentration-dependent binding behavior the kinetic data was calculated using the BIAcore evaluation software according to the manufacturer's instructions and a Langmuir 1.1 model with RMAX global.

B1: VH14 with VL01: anti-human tau(pS422) antibody; VH SEQ ID NO: 50, VL SEQ ID NO: 32 (antibody, V domains shown)
VH: QQLVESGGGLVQPGGSLRLSCAASGFSLSSNAINWVRQAPGKGLEWVGYIAVSGNTYYASWAKGRFTISRDNSKNTLYLQMNSLRAEDTAVYYCGKSNIWGPGTLVTVSS
VL: DIQMTQSTSTLSASVGDRVTITCQSSQSVRTNKLAWFQQKPGKAPKRLIYSASTLDFGVPSRFSGSGSGTEFTLTISSLQPDDFATYYCLGYFDCSIADCVAFGGGTKVEIK
modifications: humanized sequence
VH14 or VH20 with VL variants
  kd: 0.00382 s⁻¹
  t/2 diss: 3 min

B2: VH14 with VL15: anti-human tau(pS422) antibody; VH SEQ ID NO: 50, VL SEQ ID NO: 35 (antibody, V domains shown)
VH: QQLVESGGGLVQPGGSLRLSCAASGFSLSSNAINWVRQAPGKGLEWVGYIAVSGNTYYASWAKGRFTISRDNSKNTLYLQMNSLRAEDTAVYYCGKSNIWGPGTLVTVSS
VL: DIQMTQSPSSLSASVGDRVTITCRASQGVRTNKLAWFQQKPGQPPKRLIYSASTLQSGVPSRFSGSGSGTEFTLTISSLQPEDFATYYCLGYFDSSIADSVAFGGGTKVEIK
modifications: humanized sequence
VH14 or VH20 with VL variants
  kd: 0.00363 s⁻¹
  t/2 diss: 3 min

B3: VH14 with VL12: anti-human tau(pS422) antibody; VH SEQ ID NO: 50, VL SEQ ID NO: 34 (antibody, V domains shown)
VH: QQLVESGGGLVQPGGSLRLSCAASGFSLSSNAINWVRQAPGKGLEWVGYIAVSGNTYYASWAKGRFTISRDNSKNTLYLQMNSLRAEDTAVYYCGKSNIWGPGTLVTVSS
VL: DIQMTQSPSSLSASVGDRVTITCRASQGVRTNKLAWFQQKPGQPPKRLIYSASTLQSGVPSRFSGSGSGTEFTLTISSLQPEDFATYYCLGYFDCSIADCVAFGGGTKVEIK
modifications: humanized sequence
VH14 or VH20 with VL variants
  kd: 0.00248 s⁻¹
  t/2 diss: 5 min

B4: VL19 with VH19: anti-human tau(pS422) antibody; VH SEQ ID NO: 53, VL SEQ ID NO: 38 (antibody, V domains shown)
VH: QQLVESGGGLVQPGGSLRLSCAASGFSLSSNAINWVRQAPGKGLEWVGYIAVSGNTYYADSVKGRFTISKDNSKNTLYLQMNSLRAEDTAVYYCGKSNIWGQGTLVTVSS
VL: AQVMTQSPSSLSASVGDRVTITCRSSQSVRTNKLAWFQQKPGQPPKRLIYSASTLDFGVPSRFSGSGSGTEFTLTISSLQPEDFATYYCLGYFDCSIADCVAFGGGTKVEIK
modifications: humanized sequence
VL17 or VL19 with VH variants
  kd: 0.002 s⁻¹
  t/2 diss: 6 min

B5: VL17 with VH18: anti-human tau(pS422) antibody; VH SEQ ID NO: 52, VL SEQ ID NO: 37 (antibody, V domains shown)
VH: QQLVESGGGLVQPGGSLRLSCAASGFSLSSNAINWVRQAPGKGLEWVGYIAVSGNTYYADSVKGRFTISRDNSKNTLYLQMNSLRAEDTAVYYCGKSNIWGQGTLVTVSS
VL: DIQMTQSPSSLSASVGDRVTITCRSSQSVRTNKLAWFQQKPGQPPKRLIYSASTLDFGVPSRFSGSGSGTEFTLTISSLQPEDFATYYCLGYFDCSIADCVAFGGGTKVEIK
modifications: humanized sequence
VL17 or VL19 with VH variants
  kd: 0.0023 s⁻¹
  t/2 diss: 5 min

B6: VL19 with VH18: anti-human tau(pS422) antibody; VH SEQ ID NO: 52, VL SEQ ID NO: 38 (antibody, V domains shown)
VH: QQLVESGGGLVQPGGSLRLSCAASGFSLSSNAINWVRQAPGKGLEWVGYIAVSGNTYYADSVKGRFTISRDNSKNTLYLQMNSLRAEDTAVYYCGKSNIWGQGTLVTVSS
VL: AQVMTQSPSSLSASVGDRVTITCRSSQSVRTNKLAWFQQKPGQPPKRLIYSASTLDFGVPSRFSGSGSGTEFTLTISSLQPEDFATYYCLGYFDCSIADCVAFGGGTKVEIK
modifications: humanized sequence
VL17 or VL19 with VH variants
  kd: 0.0019 s⁻¹
  t/2 diss: 6 min

B7: VL17 with VH23: anti-human tau(pS422) antibody; VH SEQ ID NO: 55, VL SEQ ID NO: 37 (antibody, V domains shown)
VH: EVQVLESGGGLVQPGGSLRLSCAVSGFSLSSNAINWVRQAPGKGLEWVGYIAVSGNTYYADSVKGRFTISKDNSKNTVYLQMNSLRAEDTAVYYCGKSNIWGQGTLVTVSS
VL: DIQMTQSPSSLSASVGDRVTITCRSSQSVRTNKLAWFQQKPGQPPKRLIYSASTLDFGVPSRFSGSGSGTEFTLTISSLQPEDFATYYCLGYFDCSIADCVAFGGGTKVEIK
modifications: humanized sequence
VL17 or VL19 with VH variants
  kd: 0.0007 s⁻¹
  t/2 diss: 17 min

B8: VL17 with VH24: anti-human tau(pS422) antibody; VH SEQ ID NO: 56, VL SEQ ID NO: 37 (antibody, V domains shown)
VH: EVQLLESGGGLVQPGGSLRLSCAASGFSLSSNAINWVRQAPGKGLEWVGYIAVSGNTYYADSVKGRFTISKDNSKNTVYLQMNSLRAEDTAVYYCGKSNIWGQGTLVTVSS
VL: DIQMTQSPSSLSASVGDRVTITCRSSQSVRTNKLAWFQQKPGQPPKRLIYSASTLDFGVPSRFSGSGSGTEFTLTISSLQPEDFATYYCLGYFDCSIADCVAFGGGTKVEIK
modifications: humanized sequence
VL17 or VL19 with VH variants
  kd: 0.00079 s⁻¹
  t/2 diss: 15 min

B9: VH14 with VL09: anti-human tau(pS422) antibody; VH SEQ ID NO: 50, VL SEQ ID NO: 33 (antibody, V domains shown)
VH: QQLVESGGGLVQPGGSLRLSCAASGFSLSSNAINWVRQAPGKGLEWVGYIAVSGNTYYASWAKGRFTISRDNSKNTLYLQMNSLRAEDTAVYYCGKSNIWGPGTLVTVSS
VL: DIQMTQSPSTLSASVGDRVTITCRASQSVRTNKLAWYQQKPGKAPKRLIYSASTLESGVPSRFSGSGSGTEFTLTISSLQPDDFATYYCLGYFDCSIADCVAFGGGTKVEIK
modifications: humanized sequence
VH14 or VH20 with VL variants
  kd [1/s]: 2.35E−03. 1/s
  t/2 diss: 5 min

B10: VL19 with VH01: anti-human tau(pS422) antibody; VH SEQ ID NO: 46, VL SEQ ID NO: 38 (antibody, V domains shown)
VH: QQLVESGGGLVQPGGSLRLSCAASGFSLSSNAINWVRQAPGKGLEWVGYIAVSGNTYYASWAKGRFTISRDNSKNTLYLQMNSLRAEDTAVYYCGKSNIWGQGTLVTVSS
VL: AQVMTQSPSSLSASVGDRVTITCRSSQSVRTNKLAWFQQKPGQPPKRLIYSASTLDFGVPSRFSGSGSGTEFTLTISSLQPEDFATYYCLGYFDCSIADCVAFGGGTKVEIK
modifications: humanized sequence
VL17 or VL19 with VH variants
  kd: 0.0019 s⁻¹
  t/2 diss: 6 min

B11: VL17 with VH22: anti-human tau(pS422) antibody; VH SEQ ID NO: 54, VL SEQ ID NO: 37 (antibody, V domains shown)
VH: EVQLLESGGGLVQPGGSLRLSCAASGFSLSSNAINWVRQAPGKGLEWVGYIAVSGNTYYADSVKGRFTISRDNSKNTLYLQMNSLRAEDTAVYYCGKSNIWGQGTLVTVSS
VL: DIQMTQSPSSLSASVGDRVTITCRSSQSVRTNKLAWFQQKPGQPPKRLIYSASTLDFGVPSRFSGSGSGTEFTLTISSLQPEDFATYYCLGYFDCSIADCVAFGGGTKVEIK
modifications: humanized sequence
VL17 or VL19 with VH variants
  kd: 0.002 s⁻¹
  t/2 diss: 6 min

B12: VL19 with VH22: anti-human tau(pS422) antibody; VH SEQ ID NO: 54, VL SEQ ID NO: 38 (antibody, V domains shown)
VH: EVQLLESGGGLVQPGGSLRLSCAASGFSLSSNAINWVRQAPGKGLEWVGYIAVSGNTYYADSVKGRFTISRDNSKNTLYLQMNSLRAEDTAVYYCGKSNIWGQGTLVTVSS
VL: AQVMTQSPSSLSASVGDRVTITCRSSQSVRTNKLAWFQQKPGQPPKRLIYSASTLDFGVPSRFSGSGSGTEFTLTISSLQPEDFATYYCLGYFDCSIADCVAFGGGTKVEIK
modifications: humanized sequence
VL17 or VL19 with VH variants
  kd: 0.0021 s⁻¹
  t/2 diss: 6 min
